Assay results as given in patent publication US20100119516A1 (Eli Lilly, published 2010).
Substitutions are numbered along the chain they refer to. Each block holds one binder with its values, some of them ahead of it.

How the values were obtained:
[1] = biological target: T1, mouse TGFβRII-Fc (recombinant extracellular domain of mouse TGFβRII linked with mouse Fc or heavy chain … (mouse)); assay: ELISA
T1 construct: also called murine TGFβRII; not shown: mouse Fc or heavy chain constant region
T1 chain: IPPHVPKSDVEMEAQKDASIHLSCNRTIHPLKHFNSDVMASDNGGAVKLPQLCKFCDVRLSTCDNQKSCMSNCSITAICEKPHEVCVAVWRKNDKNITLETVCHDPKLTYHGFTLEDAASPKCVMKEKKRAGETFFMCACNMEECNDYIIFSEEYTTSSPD

[2] = biological target: T2, native human TGFβRII expressed on the cell surface (human, UniProt P37173 23-567); assay: cell-based or functional assay
[3] = biological target: T3, soluble recombinant human TGFβRII alkaline phosphatase (TGFβRII-AP) (human, UniProt P37173 23-166); assay: blocking ELISA: TGFβRII-AP binding to coated human TGFβ1
T3 construct: also called TGFβII-AP; not shown: alkaline phosphatase fusion partner
Source text: (§1) At day 10 to 12 post-fusion, the hybridomas are screened for antibody production and specific binding activity of culture supernatants with TGFβRII protein in ELISA-based binding and blocking assays. Specifically, hybridomas producing anti-TGFβRII mAbs are first identified by detection of TGFβRII-bound antibody with a goat anti-human kappa light chain or anti-mouse IgG horse radish peroxidase (HRP) conjugated antibody according to the following procedure. Human TGFβRII-Fc or mouse TGFβRII-Fc is coated at 100 ng/well on 96 microtiter plates at 4° C. overnight. The coated plates are blocked with the blocking buffer (PBS 0.05% TWEEN® 20 containing 5% dry milk) at room temperature for 2 hours. Hybridoma supernatants or purified antibodies are diluted in PBS with 2% bovine serum albumin (BSA) and 0.05% TWEEN® 20 (ELISA buffer) and incubated in TGFβRII-coated, 96-well, microtiter plates for 30 minutes. Plates are washed with the ELISA buffer and incubated with goat anti-human kappa light chain or anti-mouse IgG-HRP conjugate for 30 minutes. TMB (3,3′,5,5′-tetra-methylbenzidine) substrate is used for color development following the manufacturer's instructions. The absorbance at 450 nanometers (nm) is read for quantification of binding activity of antibodies. For identification of hybridomas producing neutralizing anti-TGFβRII mAbs, an ELISA based blocking assay is performed according to the following procedure. TGFβ1, TGFβ2, or TGFβ3 is coated at 200 ng per well on 96-well plates, and wells are then blocked with the blocking buffer. […] The absorbance at 405 nm is read for quantification of TGFβRII-binding to TGFβ1, TGFβ2, and TGFβ3. Optical density (OD) values are read on a microtiter plate reader (Molecular Devices Corp., Sunnyvale, Calif.).
(§2) The binding and blocking activity of purified anti-TGFβRII mAbs is determined in ELISA as described in “Generation of anti-TGFβRII mAbs” above. ED₅₀ and IC₅₀ of the antibodies are analyzed using GraphPad Prism® software 3.03 (GraphPad Software Inc., San Diego, Calif.).

[4] = biological target: T3, soluble recombinant human TGFβRII …; assay: blocking ELISA: TGFβRII-AP binding to coated human TGFβ2
Source text: as §1, §2

[5] = biological target: T3, soluble recombinant human TGFβRII …; assay: blocking ELISA: TGFβRII-AP binding to coated human TGFβ3
Source text: as §1, §2

[6] = biological target: T4, human TGFβRII-Fc (recombinant extracellular domain of human TGFβRII linked with human Fc or heavy chain … (human, UniProt P37173 23-166)); assay: binding ELISA on coated human TGFβRII-Fc (given as ED50)
T4 construct: not shown: human Fc or heavy chain constant region
Source text: as §1, §2

[7] = biological target: T4, human TGFβRII-Fc (recombinant …); assay: SPR (Biacore), human TGFβRII ECD-Fc immobilised, room temperature
Experimental: (§3) Kinetic analyses of the mAbs are performed by immobilization of a fusion protein of recombinant extracellular domain of either mouse TGFβRII (SEQ ID NO: 51), or the extracellular domain of human TGFβRII (SEQ ID NO: 52) linked, respectively, with either mouse or human Fc or heavy chain constant region, onto a sensor surface at a concentration of from 5 to 100 nM.

[8] = biological target: T4, human TGFβRII-Fc (recombinant …); assay: SPR (BIAcore 2000), human TGFβRII ECD-Fc immobilised, room temperature
Experimental: as §3

[9] = biological target: T2, native human TGFβRII expressed on the …; assay: flow cytometry on 293-human TGFβRII transfectant cells; MFI against isotype control
Experimental: (§4) Binding activity of anti-human TGFβRII mAb TGF1 and fluorescein isothiocyanate (FITC)-labeled goat anti-human IgG antibody may be determined by a staining assay with 293-human TGFβRII transfectant cells and human carcinoma cells. Specifically, aliquots of transfectant cells, carcinoma cells, spleen cells, or lymph node cells are harvested from subconfluent cultures and incubated with fluorescein-labeled or unlabeled primary antibodies to desired molecules in PBS with 1% BSA (staining buffer) for 1 hour on ice. A matched IgG isotype is used as a negative control. Cells are washed twice with the staining buffer and then incubated with FITC, Phycoerythrin (PE) or Alxas Red labeled species-specific secondary antibody to primary antibody (BioSource International, Camarillo, Calif.) in the buffer for 30 min on ice. Cells are washed as above and analyzed on a flow cytometer. […] The mean fluorescent intensity units (MFIU) are calculated as the mean log fluorescence multiplied by the percentage of positive population. The mean fluorescent intensity ratio (MFIR) is calculated to quantitate relative expression levels of TGFβRII in the cell lines. The MFIR is the mean fluorescence intensity (MFI) of cells stained with TGFβRII specific mAb divided by the MFI of cells stained with an isotype control antibody.

[10] = biological target: T2, native human TGFβRII expressed on the …; assay: flow cytometry on MDA-MB-231 human breast carcinoma cells; MFI against isotype control
Experimental: as §4

T2 sequence (P37173 23-567): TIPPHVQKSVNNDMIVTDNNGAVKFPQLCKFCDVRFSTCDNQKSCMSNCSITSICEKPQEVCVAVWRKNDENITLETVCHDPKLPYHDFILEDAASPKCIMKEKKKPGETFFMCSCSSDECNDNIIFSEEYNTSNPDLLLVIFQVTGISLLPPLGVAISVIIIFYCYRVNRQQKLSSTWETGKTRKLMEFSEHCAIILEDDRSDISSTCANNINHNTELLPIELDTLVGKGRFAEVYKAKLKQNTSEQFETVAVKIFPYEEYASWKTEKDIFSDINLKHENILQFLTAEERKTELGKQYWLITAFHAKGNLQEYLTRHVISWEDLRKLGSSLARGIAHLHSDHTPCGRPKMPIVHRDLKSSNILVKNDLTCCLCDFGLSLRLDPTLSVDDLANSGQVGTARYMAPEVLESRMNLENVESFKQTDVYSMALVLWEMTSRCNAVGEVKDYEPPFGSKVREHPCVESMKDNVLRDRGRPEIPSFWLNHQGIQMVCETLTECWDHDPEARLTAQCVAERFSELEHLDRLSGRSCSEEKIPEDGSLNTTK
T4 sequence (P37173 23-166): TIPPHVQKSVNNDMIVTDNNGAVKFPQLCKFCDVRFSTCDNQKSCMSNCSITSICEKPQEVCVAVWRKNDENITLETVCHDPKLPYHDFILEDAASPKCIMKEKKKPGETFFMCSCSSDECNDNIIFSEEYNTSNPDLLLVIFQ
T3 sequence (P37173 23-166): as above

binding result [1]: binds | IC50 in the p-Smad2 inhibition assay (TGFβ-induced phosphorylation of Smad2) [2]: < 25000 pM | IC50 [3]: 190 pM | IC50 [4]: 420 pM | IC50 [5]: 250 pM | EC50 [6]: 48 pM | Kd [7]: 78 pM | Kd [8]: 78 pM | koff [8]: 3.4e-05 s⁻¹ | kon [8]: 430000 M⁻¹ s⁻¹
B1: anti-human TGFβRII mAb TGF2 (antibody, V domains shown)
VH: QVQLVQSGAAVKKPGESLKISCKGSGYRFTSYWIGWVRQMPGKGLEWMGIIYPGDSDTRYSPSFQGQVTISAGKSISTAYLQWSSLKASDTAMYYCARHGRGYNGYEGAFDIWGQGTMVTVSS
VL: DIQMTQSPSSLSASVGDRVTITCRASQGISSWLAWYQQKPEKAPKSLIYAASSLQSGVPSRFSGSGSGTDFTLTISSLQPEDFATYYCQQYNSYPWTFGQGTKVEIKG
notes: Human IgG1 with kappa light chain

IC50 in the p-Smad2 inhibition assay (TGFβ-induced phosphorylation of Smad2, MDA-MB-231 cells, Western blot) [2]: 5000 pM | IC50 [3]: 120 pM | IC50 [4]: 540 pM | IC50 [5]: 190 pM | EC50 [6]: 59 pM | Kd [7]: 11 pM | Kd [8]: 11 pM | koff [8]: 1.7e-05 s⁻¹ | kon [8]: 1.5e+06 M⁻¹ s⁻¹ | MFIR (mean fluorescent intensity ratio) [9]: 46 | MFIR (mean fluorescent intensity ratio) [10]: 209
B2: anti-human TGFβRII mAb TGF1 (antibody, human IgG1, kappa, V domains shown)
VH: QLQVQESGPGLVKPSETLSLTCTVSGGSISNSYFSWGWIRQPPGKGLEWIGSFYYGEKTYYNPSLKSRATISIDTSKSQFSLKLSSVTAADTAVYYCPRGPTMIRGVIDSWGQGTLVTVSS
VL: EIVLTQSPATLSLSPGERATLSCRASQSVRSYLAWYQQKPGQAPRLLIYDASNRATGIPARFSGSGSGTDFTLTISSLEPEDFAVYYCQQRSNWPPTFGQGTKVEIKG
notes: Human antibody from human-immunoglobulin transgenic mice, engineered as full-length human IgG1 with kappa light chain

binding result [1]: binds | IC50 in the p-Smad2 inhibition assay (TGFβ-induced phosphorylation of Smad2) [2]: < 25000 pM | IC50 [3]: 100 pM | IC50 [4]: 410 pM | IC50 [5]: 130 pM | EC50 [6]: 31 pM | Kd [7]: 19 pM | Kd [8]: 19 pM | koff [8]: 2.7e-05 s⁻¹ | kon [8]: 1.4e+06 M⁻¹ s⁻¹
B3: anti-human TGFβRII mAb TGF3 (antibody, human IgG1, kappa, V domains shown)
VH: QLQLQESGPGLVKPSETLSLTCTVSGGSISSSSYSWGWIRQPPGKGLEWIGSFYYSGITYYSPSLKSRIIISEDTSKNQFSLKLSSVTAADTAVYYCASGFTMIRGALDYWGQGTLVTVSS
VL: B2 VL with Y32F
notes: as for B1
